According to patent US20110229472A1 (Amgen, published 2011):
Ends that are not written are not given here.

T1: Recombinant human MPL (human, UniProt P40238 26-491, limits assumed)
T1 construct: also called hu-mpl; hu-MPL
T1 sequence (looked up): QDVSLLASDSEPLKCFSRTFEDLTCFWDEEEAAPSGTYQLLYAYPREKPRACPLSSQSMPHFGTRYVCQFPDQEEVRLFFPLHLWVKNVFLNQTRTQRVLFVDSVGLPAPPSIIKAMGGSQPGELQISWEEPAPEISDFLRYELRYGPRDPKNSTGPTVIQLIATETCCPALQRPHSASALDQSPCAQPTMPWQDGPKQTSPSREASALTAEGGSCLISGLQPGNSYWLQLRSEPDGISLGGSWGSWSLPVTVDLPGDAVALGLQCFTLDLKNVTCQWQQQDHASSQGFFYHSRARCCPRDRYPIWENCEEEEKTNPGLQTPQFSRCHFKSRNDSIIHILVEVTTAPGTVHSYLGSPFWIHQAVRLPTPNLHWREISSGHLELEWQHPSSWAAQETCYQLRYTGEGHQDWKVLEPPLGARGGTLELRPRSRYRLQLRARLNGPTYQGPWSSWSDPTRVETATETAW

B1: TMP2 (22-residue capped peptide) (peptide)
peptide: QGGAREGPTLRQWLEWVRVGHS
notes: two-residue caps at each end; also called TMP02
B2: TMP3 (22-residue capped peptide) (peptide)
peptide: QGRDLDGPTLRQWLPLPSVQHS
notes: two-residue caps at each end; also called TMP03
B3: TMP23 (22-residue capped peptide) (peptide)
peptide: QGCSWGGPTLKQWLQCVRAKHS
modifications: not fully specified; cysteine pairing not given here
notes: two-residue caps at each end; Two Cys
B4: TMP22 (22-residue capped peptide) (peptide)
peptide: QGCSSGGPTLREWLQCRRMQHS
modifications: not fully specified; cysteine pairing not given here
notes: as for B3
B5: TMP4 (22-residue capped peptide) (peptide)
peptide: QGALRDGPTLKQWLEYRRQAHS
notes: two-residue caps at each end; also called TMP04
B6: TMP21 (22-residue capped peptide) (peptide)
peptide: QGWCKEGPTLREWLRWGFLCHS
modifications: not fully specified; cysteine pairing not given here
notes: as for B3

biological target: T1, Recombinant human MPL; test: phage ELISA titration: phagemid particles displaying the peptide, 5-fold dilution series (cfu/ul), on plate-coated recombinant human MPL, HRP-anti-M13 detection, chemiluminescent readout (Example 1, sections 4B and 5)

Row | EC50 (read off the curve) [cfu/ul] | Binder
1 | ~400000 | B1
2 | ~200000 | B2
3 | ~100000 | B3
4 | ~200000 | B4
5 | ~100000 | B5
6 | ~800000 | B6
